Measurements taken from the supplement of paper PMC9112550, “Optimization of the antimicrobial peptide Bac7 by deep mutational scanning” (BMC Biology, 2022).

System: Escherichia coli TOP10
Assay: shrunken log2 fold change of peptide-encoding DNA abundance (4.5 h post-induction vs induction); higher = less antimicrobial activity (less host growth inhibition)
Conditions: time post-induction: 4.5 h; library: site-saturation at positions 5, 18, 19, 20
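Also: peptides expressed intracellularly from a pBAD plasmid library in pooled LB shake-flask culture, induced with 0.3% L-arabinose, DNA abundance read by NGS, three biological replicates, DESeq2 with apeglm shrinkage.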

Sequence | shrunken log2 fold change
RRIRLRPPRLPRPRPRPGPMPRP | 0.255
RRIRNRPPRLPRPRPRPWYYPRP | -0.122
RRIRHRPPRLPRPRPRPALTPRP | 0.0729
RRIRERPPRLPRPRPRPCVIPRP | -0.0272
RRIRHRPPRLPRPRPRPDHTPRP | -0.307
RRIRDRPPRLPRPRPRPWMAPRP | -0.499
RRIRLRPPRLPRPRPRPCKGPRP | -0.0757
RRIRIRPPRLPRPRPRPTWCPRP | 0.0363
RRIRNRPPRLPRPRPRPQVKPRP | 0.0117
RRIRGRPPRLPRPRPRPRLTPRP | 0.948
RRIRPRPPRLPRPRPRPMIVPRP | -1.14
RRIRYRPPRLPRPRPRPDFMPRP | -2.08
RRIRPRPPRLPRPRPRPKCRPRP | 0.00849
RRIRVRPPRLPRPRPRPGSGPRP | 0.0303
RRIRLRPPRLPRPRPRPCPFPRP | -0.353
RRIRDRPPRLPRPRPRPMQSPRP | 3.94
RRIRARPPRLPRPRPRPPLFPRP | 0.789
RRIRLRPPRLPRPRPRPIGYPRP | -0.253
RRIRGRPPRLPRPRPRPVYYPRP | 0.164
RRIRMRPPRLPRPRPRPSGMPRP | 0.03
RRIRNRPPRLPRPRPRPTEDPRP | -0.187
RRIRLRPPRLPRPRPRPAEVPRP | -0.193
RRIRGRPPRLPRPRPRPCTEPRP | 0.509
RRIRQRPPRLPRPRPRPHNEPRP | -0.161
RRIRYRPPRLPRPRPRPISEPRP | -0.0398

Sequence | shrunken log2 fold change
RRIRLRPPRLPRPRPRPWGCPRP | 0.0644
RRIRSRPPRLPRPRPRPRGRPRP | 0.375
RRIRPRPPRLPRPRPRPNQLPRP | -0.258
RRIRHRPPRLPRPRPRPRDVPRP | -0.191
RRIRARPPRLPRPRPRPKLPPRP | 0.184
RRIRNRPPRLPRPRPRPTYCPRP | -0.276
RRIRKRPPRLPRPRPRPYQLPRP | -0.0193
RRIRDRPPRLPRPRPRPLPYPRP | -0.0311
RRIRGRPPRLPRPRPRPMWQPRP | 0.418
RRIRTRPPRLPRPRPRPRHQPRP | -0.154
RRIRNRPPRLPRPRPRPYVLPRP | 0.0201
RRIRNRPPRLPRPRPRPVADPRP | 0.217
RRIRIRPPRLPRPRPRPFLYPRP | -0.84
RRIRCRPPRLPRPRPRPVIMPRP | -0.604
RRIRIRPPRLPRPRPRPTRCPRP | 0.33
RRIRFRPPRLPRPRPRPIKIPRP | -0.539
RRIRKRPPRLPRPRPRPYEAPRP | -0.325
RRIRMRPPRLPRPRPRPWNHPRP | -0.0446
RRIRRRPPRLPRPRPRPTGCPRP | 0.0105
RRIRQRPPRLPRPRPRPGIWPRP | 0.0216
RRIRIRPPRLPRPRPRPHQMPRP | 0.0234
RRIRERPPRLPRPRPRPCAMPRP | -0.0091
RRIRVRPPRLPRPRPRPKMYPRP | -0.252
RRIRDRPPRLPRPRPRPNMAPRP | -0.144
RRIRPRPPRLPRPRPRPEHNPRP | -0.169

Sequence | shrunken log2 fold change
RRIRTRPPRLPRPRPRPMMLPRP | 0.00466
RRIRIRPPRLPRPRPRPDKAPRP | -0.00957
RRIRRRPPRLPRPRPRPHHTPRP | -0.408
RRIRVRPPRLPRPRPRPVTDPRP | -0.171
RRIRTRPPRLPRPRPRPQTHPRP | -0.322
RRIRSRPPRLPRPRPRPNRHPRP | -0.219
RRIRHRPPRLPRPRPRPGADPRP | 0.255
RRIRCRPPRLPRPRPRPCRNPRP | -0.154
RRIRLRPPRLPRPRPRPQTAPRP | 0.0246
RRIRNRPPRLPRPRPRPCMAPRP | -0.346
RRIRNRPPRLPRPRPRPMPMPRP | 0.0119
RRIRDRPPRLPRPRPRPWNAPRP | 0.0296
RRIRTRPPRLPRPRPRPPYKPRP | -0.294
RRIRDRPPRLPRPRPRPICVPRP | -0.109
RRIRGRPPRLPRPRPRPHTMPRP | -0.175
RRIRIRPPRLPRPRPRPMPNPRP | -0.0781
RRIRGRPPRLPRPRPRPHDIPRP | 0.0295
RRIRYRPPRLPRPRPRPIFKPRP | -0.133
RRIRKRPPRLPRPRPRPAVQPRP | 0.195
RRIRWRPPRLPRPRPRPSNVPRP | 0.108
RRIRDRPPRLPRPRPRPQYIPRP | -0.246
RRIRCRPPRLPRPRPRPVIPPRP | -0.392
RRIRGRPPRLPRPRPRPWQGPRP | 0.015
RRIRLRPPRLPRPRPRPETCPRP | -0.0935
RRIRFRPPRLPRPRPRPGSHPRP | -0.225

Sequence | shrunken log2 fold change
RRIRWRPPRLPRPRPRPKTLPRP | 0.19
RRIRCRPPRLPRPRPRPVHTPRP | 0.101
RRIRKRPPRLPRPRPRPHPLPRP | 0.393
RRIRRRPPRLPRPRPRPSNNPRP | -0.303
RRIRRRPPRLPRPRPRPQMTPRP | 0.238
RRIRDRPPRLPRPRPRPPFCPRP | 0.284
RRIRYRPPRLPRPRPRPNKEPRP | -0.0622
RRIRTRPPRLPRPRPRPKLAPRP | 0.163
RRIRGRPPRLPRPRPRPEQFPRP | 0.846
RRIRYRPPRLPRPRPRPGWRPRP | 0.386
RRIRMRPPRLPRPRPRPRGSPRP | 0.631
RRIRERPPRLPRPRPRPDVHPRP | -0.435
RRIRDRPPRLPRPRPRPCIQPRP | -0.0125
RRIRFRPPRLPRPRPRPVYNPRP | -1.27
RRIRNRPPRLPRPRPRPTTAPRP | -0.0817
RRIRWRPPRLPRPRPRPMPDPRP | 0.173
RRIRIRPPRLPRPRPRPESQPRP | 0.0553
RRIRSRPPRLPRPRPRPMCQPRP | -0.0136
RRIRKRPPRLPRPRPRPMFGPRP | 0.112
RRIRKRPPRLPRPRPRPVEIPRP | 0.0372
RRIRSRPPRLPRPRPRPIIRPRP | -1.09
RRIRGRPPRLPRPRPRPQFKPRP | 0.0112
RRIRLRPPRLPRPRPRPYQMPRP | -0.188
RRIRKRPPRLPRPRPRPNSIPRP | -0.0805
RRIRQRPPRLPRPRPRPWKWPRP | -0.299

Sequence | shrunken log2 fold change
RRIRKRPPRLPRPRPRPMAMPRP | 0.325
RRIRKRPPRLPRPRPRPYNYPRP | -0.898
RRIRWRPPRLPRPRPRPNNIPRP | -0.779
RRIRKRPPRLPRPRPRPINLPRP | -0.00204
RRIRKRPPRLPRPRPRPEQTPRP | 1.15
RRIRWRPPRLPRPRPRPKGRPRP | 0.0214
RRIRIRPPRLPRPRPRPEWYPRP | -0.142
RRIRRRPPRLPRPRPRPEWNPRP | 0.471
RRIRYRPPRLPRPRPRPYLSPRP | -0.274
RRIRERPPRLPRPRPRPRVQPRP | 0.00573
RRIRSRPPRLPRPRPRPKINPRP | -0.424
RRIRPRPPRLPRPRPRPWMWPRP | 0.0296
RRIRPRPPRLPRPRPRPAMGPRP | 0.332
RRIRYRPPRLPRPRPRPSRWPRP | 0.0398
RRIRSRPPRLPRPRPRPKEDPRP | 1.6
RRIRTRPPRLPRPRPRPIIQPRP | -0.487
RRIRQRPPRLPRPRPRPQYCPRP | 0.0332
RRIRWRPPRLPRPRPRPQAPPRP | -0.164
RRIRSRPPRLPRPRPRPPHLPRP | -0.00867
RRIRCRPPRLPRPRPRPKAMPRP | 0.234
RRIRWRPPRLPRPRPRPKETPRP | 0.0203
RRIRWRPPRLPRPRPRPAWGPRP | 0.477
RRIRERPPRLPRPRPRPYEHPRP | -0.278
RRIRIRPPRLPRPRPRPMTVPRP | 0.0104
RRIRARPPRLPRPRPRPHFGPRP | 0.0349

Sequence | shrunken log2 fold change
RRIRLRPPRLPRPRPRPHCGPRP | -0.22
RRIRHRPPRLPRPRPRPGYDPRP | 0.381
RRIRLRPPRLPRPRPRPQFAPRP | 0.0774
RRIRKRPPRLPRPRPRPRYHPRP | -0.17
RRIRMRPPRLPRPRPRPMFSPRP | -0.125
RRIRQRPPRLPRPRPRPKNCPRP | -0.0633
RRIRGRPPRLPRPRPRPYLNPRP | -0.233
RRIRRRPPRLPRPRPRPINWPRP | -0.0685
RRIRWRPPRLPRPRPRPTMMPRP | 0.113
RRIRCRPPRLPRPRPRPLKIPRP | -0.511
RRIRVRPPRLPRPRPRPEPGPRP | 0.547
RRIRMRPPRLPRPRPRPCLWPRP | 0.0121
RRIRERPPRLPRPRPRPLIVPRP | -0.632
RRIRTRPPRLPRPRPRPCQPPRP | -0.387
RRIRPRPPRLPRPRPRPCHCPRP | 0.153
RRIRSRPPRLPRPRPRPIWEPRP | 0.0462
RRIRKRPPRLPRPRPRPVNQPRP | -0.145
RRIRSRPPRLPRPRPRPFDMPRP | 0.394
RRIRLRPPRLPRPRPRPEPTPRP | -0.00556
RRIRERPPRLPRPRPRPIQCPRP | 0.0885
RRIRGRPPRLPRPRPRPMRLPRP | 1.05
RRIRARPPRLPRPRPRPRMMPRP | 0.229
RRIRQRPPRLPRPRPRPPPSPRP | 0.731
RRIRCRPPRLPRPRPRPETVPRP | 0.448
RRIRTRPPRLPRPRPRPHHTPRP | -0.474
